These results are taken from patent US20230257472A1 (JIANGSU HENGRUI MEDICINE, published 2023).

B1: huB7010 (antibody, human IgG1, kappa, V domains shown)
VH: EIQLVQSGSELKKPGASVKVSCKTSGYTFTNYGMNWVRQAPGQGLEWMGWINTYTGEPTYADEFKGRFVFSLETSVSTAYLQISSLKAEDTAVYYCARGDSFTTEILRNWYFDVWGQGTTVTVSS
VL: DIQMTQSPSSLSASVGDRVTITCGASENIYGALNWYQQKPGKVPKLLIYGATNLADGVPSRFSGSGSGRDYTLTISSLQPEDVATYYCQNVLSTPWTFGGGTKVEIKR
notes: Humanized IgG1
B2: huB7014 (antibody, human IgG1, kappa, V domains shown)
VH: EVQLVQSGSELKKPGASVKVSCKASGYTFTNYGMNWVRQAPGQGLEWMGWINTYTGEPTYADEFKGRFVFSLDTSVSTAYLQISSLKAEDTAVYYCARGDSFTTEILRNWYFDVWGQGTTVTVSS
VL: DIQMTQSPSSLSASVGDRVTITCGASENIYGALNWYQQKPGKSPKLLIYGATNLADGVPSRFSGSGSGRDYTLTISSLQPEDVATYYCQNVLSTPWTFGGGTKVEIKR
notes: Humanized IgG1
B3: huB7018 (antibody, human IgG1, kappa, V domains shown)
VH: EIQLVQSGSELKKPGASVKVSCKTSGYTFTNYGMNWVRQAPGQGLKWMGWINTYTGEPTYADEFKGRFVFSLETSVSTAYLQINSLKAEDTAVYYCARGDSFTTEILRNWYFDVWGQGTTVTVSS
VL: DIQMTQSPSSLSASVGDRVTITCGASENIYGALNWYQQKPGKSPKLLIYGATNLADGVPSRFSGSGSGRDYTLTISSLQPEDVATYYCQNVLSTPWTFGGGTKVEIKR
notes: Humanized IgG1
B4: huB7022 (antibody, human IgG1, kappa, V domains shown)
VH: EIQLVQSGSELKKPGASVKVSCKTSGYTFTNYGMNWVRQAPGQGLEWMGWINTYTGEPTYADEFKGRFVFSLETSVSTAYLQISSLKAEDTAVYYCARGDSFTTEILRNWYFDVWGQGTTVTVSS
VL: DIQMTQSPSSLSASVGDRVTITCGASENIYGALNWYQRKPGKSPKLLIYGATNLADGVPSRFSGSGSGRQYTLTISSLQPEDVATYYCQNVLSTPWTFGGGTKVEIKR
notes: Humanized IgG1
B5: huB7008 (antibody, human IgG1, kappa, V domains shown)
VH: EVQLVQSGSELKKPGASVKVSCKASGYTFTNYGMNWVRQAPGQGLEWMGWINTYTGEPTYADEFKGRFVFSLDTSVSTAYLQISSLKAEDTAVYYCARGDSFTTEILRNWYFDVWGQGTTVTVSS
VL: DIQMTQSPSSLSASVGDRVTITCGASENIYGALNWYQQKPGKVPKLLIYGATNLADGVPSRFSGSGSGRDYTLTISSLQPEDVATYYCQNVLSTPWTFGGGTKVEIKR
notes: Humanized IgG1
B6: huB7012 (antibody, human IgG1, kappa, V domains shown)
VH: EIQLVQSGSELKKPGASVKVSCKTSGYTFTNYGMNWVRQAPGQGLKWMGWINTYTGEPTYADEFKGRFVFSLETSVSTAYLQINSLKAEDTAVYYCARGDSFTTEILRNWYFDVWGQGTTVTVSS
VL: DIQMTQSPSSLSASVGDRVTITCGASENIYGALNWYQQKPGKVPKLLIYGATNLADGVPSRFSGSGSGRDYTLTISSLQPEDVATYYCQNVLSTPWTFGGGTKVEIKR
notes: Humanized IgG1
B7: huB7004 (antibody, human IgG1, kappa, V domains shown)
VH: EIQLVQSGSELKKPGASVKVSCKTSGYTFTNYGMNWVRQAPGQGLEWMGWINTYTGEPTYADEFKGRFVFSLETSVSTAYLQISSLKAEDTAVYYCARGDSFTTEILRNWYFDVWGQGTTVTVSS
VL: DIQMTQSPSSLSASVGDRVTITCGASENIYGALNWYQQKPGKVPKLLIYGATNLADGVPSRFSGSGSGTDFTLTISSLQPEDVATYYCQNVLSTPWTFGGGTKVEIKR
notes: Humanized IgG1
B8: huB7016 (antibody, human IgG1, kappa, V domains shown)
VH: EIQLVQSGSELKKPGASVKVSCKTSGYTFTNYGMNWVRQAPGQGLEWMGWINTYTGEPTYADEFKGRFVFSLETSVSTAYLQISSLKAEDTAVYYCARGDSFTTEILRNWYFDVWGQGTTVTVSS
VL: DIQMTQSPSSLSASVGDRVTITCGASENIYGALNWYQQKPGKSPKLLIYGATNLADGVPSRFSGSGSGRDYTLTISSLQPEDVATYYCQNVLSTPWTFGGGTKVEIKR
notes: Humanized IgG1
B9: huB7006 (antibody, human IgG1, kappa, V domains shown)
VH: EIQLVQSGSELKKPGASVKVSCKTSGYTFTNYGMNWVRQAPGQGLKWMGWINTYTGEPTYADEFKGRFVFSLETSVSTAYLQINSLKAEDTAVYYCARGDSFTTEILRNWYFDVWGQGTTVTVSS
VL: DIQMTQSPSSLSASVGDRVTITCGASENIYGALNWYQQKPGKVPKLLIYGATNLADGVPSRFSGSGSGTDFTLTISSLQPEDVATYYCQNVLSTPWTFGGGTKVEIKR
notes: Humanized IgG1
B10: huB7024 (antibody, human IgG1, kappa, V domains shown)
VH: EIQLVQSGSELKKPGASVKVSCKTSGYTFTNYGMNWVRQAPGQGLKWMGWINTYTGEPTYADEFKGRFVFSLETSVSTAYLQINSLKAEDTAVYYCARGDSFTTEILRNWYFDVWGQGTTVTVSS
VL: DIQMTQSPSSLSASVGDRVTITCGASENIYGALNWYQRKPGKSPKLLIYGATNLADGVPSRFSGSGSGRQYTLTISSLQPEDVATYYCQNVLSTPWTFGGGTKVEIKR
notes: Humanized IgG1
B11: huB7020 (antibody, human IgG1, kappa, V domains shown)
VH: EVQLVQSGSELKKPGASVKVSCKASGYTFTNYGMNWVRQAPGQGLEWMGWINTYTGEPTYADEFKGRFVFSLDTSVSTAYLQISSLKAEDTAVYYCARGDSFTTEILRNWYFDVWGQGTTVTVSS
VL: DIQMTQSPSSLSASVGDRVTITCGASENIYGALNWYQRKPGKSPKLLIYGATNLADGVPSRFSGSGSGRQYTLTISSLQPEDVATYYCQNVLSTPWTFGGGTKVEIKR
notes: Humanized IgG1
B12: huF4027 (antibody, human IgG1, kappa, V domains shown)
VH: EVQLVQSGAEVKKPGSSVKVSCKASGDTFPRYNMHWVRQAPGQGLEWMGAIFPGNGETSYNQNFKGRVTLTADKSTSTAYMELSSLRSEDTAVYYCARNSYYDYAWFTYWGQGTLVTVSS
VL: DIVMTQSPDSLAVSLGERATINCRASKSVSSSGYSFMHWYQQKPGQPPKLLIYLASNLESGVPDRFSGSGSGTDFTLTISSLQAEDVAVYYCQHSREFPPTFGQGTKLEIKR
notes: Humanized IgG1
B13: huF4026 (antibody, human IgG1, kappa, V domains shown)
VH: EVQLVQSGAEVKKPGSSVKVSCKASGDTFPRYNMHWVRQAPGQGLEWMGAIFPGNGETSYNQNFKGRVTITADKSTSTAYMELSSLRSEDTAVYYCARNSYYDYAWFTYWGQGTLVTVSS
VL: DIVMTQSPDSLAVSLGERATINCRASKSVSSSGYSFMHWYQQKPGQPPKLLIYLASNLESGVPDRFSGSGSGTDFTLTISSLQAEDVAVYYCQHSREFPPTFGQGTKLEIKR
notes: Humanized IgG1
B14: huF4009 (antibody, human IgG1, kappa, V domains shown)
VH: EVQLVQSGAEVKKPGSSVKVSCKASGDTFPRYNMHWVRQAPGQGLEWMGAIFPGTGETSYNQNFKGRVTLTADKSTSTAYMELSSLRSEDTAVYYCARNSYYDYAWFTYWGQGTLVTVSS
VL: DIVMTQSPDSLAVSLGERATINCRASKSVSSSGYSFMHWYQQKPGQPPKLLIYLADNLESGVPDRFSGSGSGTDFTLTISSLQAEDVAVYYCQHSREFPPTFGQGTKLEIKR
notes: Humanized IgG1
B15: huF4025 (antibody, human IgG1, kappa, V domains shown)
VH: EVQLVQSGAEVKKPGSSVKVSCKASGGTFSRYNMHWVRQAPGQGLEWMGAIFPGNGETSYNQNFKGRVTITADKSTSTAYMELSSLRSEDTAVYYCARNSYYDYAWFTYWGQGTLVTVSS
VL: DIVMTQSPDSLAVSLGERATINCRASKSVSSSGYSFMHWYQQKPGQPPKLLIYLASNLESGVPDRFSGSGSGTDFTLTISSLQAEDVAVYYCQHSREFPPTFGQGTKLEIKR
notes: Humanized IgG1
B16: huF4028 (antibody, human IgG1, kappa, V domains shown)
VH: EVQLVQSGAEVKKPGSSVKVSCKASGDTFPRYNMHWLKQAPGQGLEWMGAIFPGNGETSYNQNFKGRVTLTADKSTSTAYMELSSLRSEDTAVYYCARNSYYDYAWFTYWGQGTLVTVSS
VL: DIVMTQSPDSLAVSLGERATINCRASKSVSSSGYSFMHWYQQKPGQPPKLLIYLASNLESGVPDRFSGSGSGTDFTLTISSLQAEDVAVYYCQHSREFPPTFGQGTKLEIKR
notes: Humanized IgG1

The target of this assay is T1, His-tagged CD70 protein extracellular domain (His-TNC-CD70) (human).
T1 construct: Expressed in 293 cells; also called human His-TNC-CD70 antigen; human CD70 antigen
T1 chain: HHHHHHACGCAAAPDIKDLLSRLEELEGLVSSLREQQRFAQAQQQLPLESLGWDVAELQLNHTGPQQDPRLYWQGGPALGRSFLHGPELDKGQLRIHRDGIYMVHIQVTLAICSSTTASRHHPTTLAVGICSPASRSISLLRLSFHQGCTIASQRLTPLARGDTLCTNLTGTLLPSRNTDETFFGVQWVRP
Kind of assay: SPR Biacore T200, antibody captured by anti-human Fc, His-TNC-CD70 in flow, 1:1 model. Here is the method: The affinity of the chimeric and humanized antibodies of the present disclosure for the human CD70 antigen was tested using a Biacore instrument. The procedures are as follows:
The human Fc capture molecules were covalently coupled to a CM5 biosensor chip (CAT #BR-1005-30, GE) according to the method described in the instructions of the human Fc capture kit (CAT #BR-1008-39, GE) for affinity capture of the antibodies to be tested. Then, a human His-TNC-CD70 antigen (set forth in SEQ ID NO: 1) flowed through the surface of the chip, and the reaction signal was detected in real time using a Biacore T200 instrument to obtain association and dissociation curves. After the dissociation was completed for each cycle, the biochip was washed and regenerated with a regeneration solution configured in the human antibody capture kit (GE). Data were fitted using a 1:1 model.
(Surface plasmon resonance follows binding to a sensor surface in real time, without labels.)
In general, Kd refers to a measure of binding affinity in units of concentration. A higher Kd goes with lower affinity. A word on the koff: it is the first-order rate constant of dissociation. High values mean fast dissociation, low ones slow dissociation. The kon is a measure of how fast the partners come together. Lower therefore signals slow association. In the case of B1, the Kd turned out to be 0.0396 nM, the koff is 0.000172 s⁻¹ and the on-rate (kon) was determined as 4.36e+06 M⁻¹ s⁻¹.
B2 showed a dissociation constant (Kd) of 0.0371 nM, a koff of 0.000182 s⁻¹ and a kon of 4.92e+06 M⁻¹ s⁻¹.
Consider B3, for which the affinity, expressed as Kd, was 0.0464 nM; the koff turned out to be 0.000191 s⁻¹; the on-rate (kon) turned out to be 4.12e+06 M⁻¹ s⁻¹.
In turn, B4 gave an equilibrium dissociation constant (Kd) of 0.0442 nM, a koff of 0.000195 s⁻¹ and a kon of 4.41e+06 M⁻¹ s⁻¹.
As for B5, the Kd was 0.0347 nM, the off-rate constant (koff) was determined as 0.000169 s⁻¹ and the kon stood at 4.87e+06 M⁻¹ s⁻¹.
Taken in the same sequence, the figures for B6 were 0.0257 nM, 0.000154 s⁻¹ and 5.99e+06 M⁻¹ s⁻¹.
Turning to B7, the equilibrium dissociation constant (Kd) came out at 0.0282 nM, the koff came to 0.000157 s⁻¹ and the kon amounted to 5.58e+06 M⁻¹ s⁻¹.
Regarding B8, the affinity, expressed as Kd, was 0.0418 nM; the off-rate (koff) is 0.000185 s⁻¹; the kon was 4.43e+06 M⁻¹ s⁻¹.
The molecule B9 had a dissociation constant Kd of 0.0246 nM, a koff of 0.000158 s⁻¹ and a kon of 6.41e+06 M⁻¹ s⁻¹.
Molecule B10 showed a Kd of 0.0464 nM, a koff of 0.000205 s⁻¹ and a kon of 4.41e+06 M⁻¹ s⁻¹.
In the same order, the values of B11 are 0.0276 nM, 0.000159 s⁻¹ and 5.76e+06 M⁻¹ s⁻¹.
For B12, the Kd was 0.0335 nM, the off-rate constant (koff) is 9.13e-05 s⁻¹ and the on-rate constant (kon) was determined as 2.73e+06 M⁻¹ s⁻¹.
B13 registered a dissociation constant Kd of 0.0392 nM, a koff of 9.56e-05 s⁻¹ and a kon of 2.44e+06 M⁻¹ s⁻¹.
B14 displayed a dissociation constant Kd of 0.0455 nM, a koff of 0.000114 s⁻¹ and an on-rate (kon) of 2.51e+06 M⁻¹ s⁻¹.
B15: the Kd was 0.0403 nM, the koff stood at 8.68e-05 s⁻¹ and the kon turned out to be 2.15e+06 M⁻¹ s⁻¹.
The molecule B16 had a dissociation constant Kd of 0.0412 nM, a koff of 0.000106 s⁻¹ and a kon of 2.56e+06 M⁻¹ s⁻¹.
